Biological target: the molecule itself
Assay: ITC dilution of a 100 µM stock at 25° C.; self-association of the decamer, no CTC could be determined

B1: Prx1 from Pyrococcus furiosus (Pfu-Prx) in which the cysteine residues have been mutated into serine residues (enzyme)
chain: MIVIGEKFPEVEVKTTHGVIKLPDHFTKQGKWFMLFSHPADFTPVSTTEFYGLQIRLEKFRELGVEPIGLSVDQVFSHLKWMEWIKEKLGVEIEFPVIADDRGDLAEKLGMIPSGSTITARAVFIVDDKGIIRAIVYYPAEVGRDWDEILRLVKALKISTEKGVALPHKWPNNELIGDKVIVPPASSVEQIKEREEAKAKGEIESYDWWFSYKKLE
notes: not described
binding result: binds

Reference: patent US20240043824A1 (UNIVERSITE DE LORRAINE, published 2024)
